Test [1] deals with 血清淀粉样蛋白A (Serum amyloid A, SAA) (UniProt P0DJI8). Put plainly: BLI, antibody captured on AMC sensor, SAA in solution.
Test [2] shares this target. The experiment in a line: indirect ELISA, SAA coated at 2 ug/ml, antibody at 7.5 ng/ml. In general terms: In an ELISA, binding on a coated surface is turned into a signal by an enzyme label.
The target is the same in test [3]. Put plainly: indirect ELISA, SAA coated at 2 ug/ml, antibody at 60 ng/ml.
Test [4] has the same target. The experiment in a line: indirect ELISA, SAA coated at 2 ug/ml, antibody at 15 ng/ml.
The target is the same in test [5]. Put plainly: indirect ELISA, SAA coated at 2 ug/ml, antibody at 3.75 ng/ml.
The target is the same in test [6]. The experiment in a line: indirect ELISA, SAA coated at 2 ug/ml, antibody at 30 ng/ml.
For test [7] the target is unchanged. Put plainly: indirect ELISA, SAA coated at 2 ug/ml, antibody at 0 ng/ml (blank).

The record followed here is patent publication CN116836273A.

One may read the Kd as the concentration at which binding is half-saturated. Low values mean higher affinity, high ones lower affinity. As a reminder, the koff is the first-order rate constant of dissociation. A higher koff goes with a short-lived complex. As usually defined, the kon is a measure of how fast the partners come together. A low value points to slow association.

Chain of UniProt P0DJI8 (P0DJI8 19-122 limits assumed): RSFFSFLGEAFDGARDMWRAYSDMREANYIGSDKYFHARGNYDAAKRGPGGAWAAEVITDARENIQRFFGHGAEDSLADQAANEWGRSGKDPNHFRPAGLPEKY

The substance 对照 (control antibody) came in with a Kd in test [1] of 7.98 nM. This substance also displayed an off-rate (koff) in test [1] of 9.82e-05 s⁻¹. The kon in test [1] turned out to be 12300 M⁻¹ s⁻¹. For the same substance, the OD (OD450 (ref. 630 nm)) came out at 0.562 in test [2]; 1.79 in test [3]; 0.912 in test [4]; 0.316 in test [5]; 1.63 in test [6]; 0.009 in test [7].
